Experimental data as given in publication PMC10248883 (The Journal of Biological Chemistry, 2023).

Assays:
[1] = target: RAMP2–CLR ECD; settings: read-out: KI, equilibrium affinity; purified RAMP2–CLR ECD complex; ref [31]; cited from earlier work
[2] = target: RAMP3–CLR ECD; settings: read-out: KI, equilibrium affinity; purified RAMP3–CLR ECD complex; ref [31]; cited from earlier work
[3] = target: NLuc–CLR–RAMP3 receptor (AM2R) in COS-7 membranes (human) (UniProt Q16602); assay: FRET or BRET
Chain of NLuc–CLR–RAMP3 receptor (AM2R) in COS-7 membranes (human) (Q16602 23-461, chain 1 of 2): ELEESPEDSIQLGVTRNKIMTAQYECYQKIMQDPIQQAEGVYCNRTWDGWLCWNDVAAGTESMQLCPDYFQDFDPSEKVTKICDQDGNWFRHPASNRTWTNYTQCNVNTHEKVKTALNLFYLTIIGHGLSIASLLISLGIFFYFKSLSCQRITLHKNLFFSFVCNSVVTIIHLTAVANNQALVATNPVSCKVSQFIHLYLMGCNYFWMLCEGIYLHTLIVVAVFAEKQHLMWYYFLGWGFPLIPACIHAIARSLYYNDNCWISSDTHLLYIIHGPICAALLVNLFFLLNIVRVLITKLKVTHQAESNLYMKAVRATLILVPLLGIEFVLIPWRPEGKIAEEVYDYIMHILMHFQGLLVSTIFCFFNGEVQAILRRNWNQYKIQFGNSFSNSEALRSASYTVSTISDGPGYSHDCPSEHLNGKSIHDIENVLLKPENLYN
Chain of NLuc–CLR–RAMP3 receptor (AM2R) in COS-7 membranes (human) (O60896 24-148, chain 2 of 2, further chain): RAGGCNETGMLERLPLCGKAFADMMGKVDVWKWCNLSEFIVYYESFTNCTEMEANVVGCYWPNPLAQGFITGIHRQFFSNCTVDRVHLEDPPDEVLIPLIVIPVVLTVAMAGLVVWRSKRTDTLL

Row | Kd [3] [nM] | half-life (t1/2) from the off-rate of the association kinetics [3] [min] | half-life of the fast component of dissociation [3] [min] | half-life of the slow component of dissociation [3] [min] | Substance | Ki [1] [nM] | Ki [2] [nM]
1 | – | – | – | – | AM2/IMD: Synthetic human peptide AM2/IMD(1–47) purchased from Bachem | ~14000 | ~2000
2 | 7 | 41 | 7 | 76 | AM2/IMD–TAMRA (peptide) | – | –
3 | 26 | 2.6 | 0.75 | 6.9 | AM–TAMRA (peptide) | – | –
